Assay results: paper PMC6760140
Where a chain is given by its changes, count along the chain named. Names may count otherwise.

B1: 2544 Fab κC:P94T (protein)
chain 1: EVQLVESGGGLVQPGGSLRLSCVASGFTFSNYNMNWVRQAPGKGLEWLSYISSSSGTIYYADSVKGRFTISRDNAKNSMYLQMNSLRAEDTAVYYCVRVEYYYGSSGYYYDFDSWGQGTLVTVSS
chain 2: DIVMTQSPLSLPVTPGEPASISCRSSQSLLHNGYNYLDWYLQKPGQSPQLLIYLGSNRASGVPDRFSGSGSGTDFTLKISRVEAEDVGVYYCMQTLQTFTFGQGTRLEIK
B2: 2544 Fab HC:D100GY (protein)
chain 1: B1 chain 1 with D111Y
chain 2: B1 chain 2 with T98P
B3: 2544 Fab HC:G55S (protein)
chain 1: B1 chain 1 with G56S
chain 2: B1 chain 2 with T98P
B4: 2544 Fab κC:T91A (protein)
chain 1: B1 chain 1
chain 2: B1 chain 2 with T95A, T98P
B5: 2544 Fab κC:F95P (protein)
chain 1: B1 chain 1
chain 2: B1 chain 2 with T98P, F99P

Molecular target: Recombinant His-tagged Pfs25, P13829
Assay: BLI
Settings: chain shown with the change; immobilized Pfs25 and mutant Fab analyte; parent: est. 4.6; read off a plot

Row | Binder | Kd [µM]
1 | B1 | 0.014
2 | B2 | 0.018
3 | B3 | 0.014
4 | B4 | 0.012
5 | B5 | 22
